For 1 substance, LD50 (sensitivity of cell line to the FGF-18-saporin conjugate) results are on record in patent EP1234033B1.

For this assay, the target named is FGF receptor-3c on human osteosarcoma cell line (ATCC, CRL 1543) (human) (UniProt P22607). Nature of the assay: cell-based or functional assay.
Sequence of UniProt P22607 (P22607 23-806): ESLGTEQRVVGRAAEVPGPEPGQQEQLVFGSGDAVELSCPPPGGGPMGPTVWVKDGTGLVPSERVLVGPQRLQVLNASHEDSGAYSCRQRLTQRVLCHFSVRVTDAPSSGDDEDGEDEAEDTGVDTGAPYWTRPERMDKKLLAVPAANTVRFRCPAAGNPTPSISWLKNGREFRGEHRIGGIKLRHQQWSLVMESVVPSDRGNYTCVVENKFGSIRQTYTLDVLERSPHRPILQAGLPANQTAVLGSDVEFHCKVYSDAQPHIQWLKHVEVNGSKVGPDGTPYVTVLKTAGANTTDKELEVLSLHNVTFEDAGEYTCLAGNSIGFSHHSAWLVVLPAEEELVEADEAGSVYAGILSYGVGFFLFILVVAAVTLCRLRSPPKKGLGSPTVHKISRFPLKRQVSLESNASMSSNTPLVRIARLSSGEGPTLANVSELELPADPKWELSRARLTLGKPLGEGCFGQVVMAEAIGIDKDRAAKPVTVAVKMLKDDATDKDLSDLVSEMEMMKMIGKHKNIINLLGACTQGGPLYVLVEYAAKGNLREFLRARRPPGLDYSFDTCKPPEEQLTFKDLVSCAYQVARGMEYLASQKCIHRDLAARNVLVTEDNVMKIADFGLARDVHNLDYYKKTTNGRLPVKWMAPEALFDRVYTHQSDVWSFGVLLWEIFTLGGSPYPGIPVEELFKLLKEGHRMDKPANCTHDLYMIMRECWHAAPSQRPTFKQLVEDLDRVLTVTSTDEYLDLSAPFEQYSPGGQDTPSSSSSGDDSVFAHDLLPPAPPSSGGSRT

As to FGF-18-saporin conjugate, the LD50 (sensitivity of cell line to the FGF-18-saporin conjugate) is below 1 nM.
